First the molecules themselves.
B1: Calcium uptake protein 2, mitochondrial (Homo sapiens), Q8IYU8 (parent)
chain: MAAAAGSCARVAAWGGKLRRGLAVSRQAVRSPGPLAAAVAGAALAGAGAAWHHSRVSVAARDGSFTVSAQKNVEHGIIYIGKPSLRKQRFMQFSSLEHEGEYYMTPRDFLFSVMFEQMERKTSVKKLTKKDIEDTLSGIQTAGCGSTFFRDLGDKGLISYTEYLFLLTILTKPHSGFHVAFKMLDTDGNEMIEKREFFKLQKIISKQDDLMTVKTNETGYQEAIVKEPEINTTLQMRFFGKRGQRKLHYKEFRRFMENLQTEIQEMEFLQFSKGLSFMRKEDFAEWLLFFTNTENKDIYWKNVREKLSAGESISLDEFKSFCHFTTHLEDFAIAMQMFSLAHRPVRLAEFKRAVKVATGQELSNNILDTVFKIFDLDGDECLSHEEFLGVLKNRMHRGLWVPQHQSIQEYWKCVKKESIKGVKEVWKQAGKGLF
B2: Calcium uptake protein 1, mitochondrial (Homo sapiens), Q9BPX6 (parent)
chain: MFRLNSLSALAELAVGSRWYHGGSQPIQIRRRLMMVAFLGASAVTASTGLLWKRAHAESPPCVDNLKSDIGDKGKNKDEGDVCNHEKKTADLAPHPEEKKKKRSGFRDRKVMEYENRIRAYSTPDKIFRYFATLKVISEPGEAEVFMTPEDFVRSITPNEKQPEHLGLDQYIIKRFDGKKISQEREKFADEGSIFYTLGECGLISFSDYIFLTTVLSTPQRNFEIAFKMFDLNGDGEVDMEEFEQVQSIIRSQTSMGMRHRDRPTTGNTLKSGLCSALTTYFFGADLKGKLTIKNFLEFQRKLQHDVLKLEFERHDPVDGRITERQFGGMLLAYSGVQSKKLTAMQRQLKKHFKEGKGLTFQEVENFFTFLKNINDVDTALSFYHMAGASLDKVTMQQVARTVAKVELSDHVCDVVFALFDCDGNGELSNKEFVSIMKQRLMRGLEKPKDMGFTRLMQAMWKCAQETAWDFALPKQ
partner: B1 chain

This is an account of results in IntAct's records for PubMed 32494073.

In one assay the parent is B1. The conditions noted are these: with micu1_human MICU1, Q9BPX6.
Regarding R352E, the “effect of a mutation on the interaction” value is given as “disrupting interaction strength”.

The variants in a further assay derive from B2. The conditions noted are these: with micu2_human MICU2, Q8IYU8.
As for C463S, the “effect of a mutation on the interaction” value is on record as “with no effect”.
